According to PMC9170038, “Crowdsourced RNA design discovers diverse, reversible, efficient, self-contained molecular switches”:

B1: Eterna 7694710 (Exclusion - FMN B) (ssRNA)
RNA: GGAUAGGACAGAGGAUAUGGACAGUCUACAAAGUAGGCUGAAAAUCCUUGAAUGGAAGUGAUGUUUCUAGAAGGCUGUCCUAUCG
B2: Eterna 7730249 (Same State - Arginine B) (ssRNA)
RNA: UGUAUGGACUGAAGGAGCGCCUCAAAAUAGCAUGAGGAUCACCCAUGCAAGGCGAAAGCCGGGCAGGUAGGUCGCAGUCCAUACU
B3: Eterna 6436150 (Inverted Small Loop Exclusion NG 3) (ssRNA)
RNA: AACCGCGACCGGCCUGGCACGCCGAGAAGGGUACGUGACCUGCUUUACAUGAGGAUCACCCAUGUACAGGAUAUCGGAUAGCCG
B4: Eterna 6437027 (Inverted Exclusion NG 3) (ssRNA)
RNA: AUACAUGAGGAUCACCCAUGUUACUGGGUCUAUAUAGAACGUAGAAGGAUGUUUAUACACAUAACAUAGGAUAUACAAUAUUGU
B5: Eterna 7626312 (Exclusion - Theophylline A) (ssRNA)
RNA: AGAUGCCACUGUGGAUAGCACGAUGCCGAUACCAGCUAGGAAACUAGCCCUUGGCAGCGGUACAUGAGGAUCACCCAUGUAUCCU
B6: Eterna 6416899 (Inverted Same State NG 1) (ssRNA)
RNA: CACAAAUGGCAGAAGGGACGGACGAUAGUGUAGUCAGGAUAUGCAAAUAGGUAUGGACAUGAGGAUCACCCAUGUCCGUCCUUU
B7: Eterna 7675404 (Same State - Tryptophan A) (ssRNA)
RNA: UGGCGAGUGAUGUUCGUUGUUGUAGUGUGUCGAGGACCGGUACGGCCGCCACUCGAGUUGGUUGUUGUUGUUGCUGUUGUUGCUG
B8: Eterna 7692524 (Same State - Theophylline A) (ssRNA)
RNA: UGAUAAUGCAGUGAUGUUGCUAGAAACGAUACCAGUUAAGAAAAGAACCCUUGGCAGCGUAAAGUGCGCUCUAAUGAGUGUGCUU
B9: Eterna 7727764 (Exclusion - Tryptophan B) (ssRNA)
RNA: AAUAAACAGUCGGCCGCCACUUCAAUAGACUUAUUAUUGAAUGGUGUAGUUCUUCAGUGAUGUUGAAGGACCGGGACUUUCGCGC
B10: Eterna 7702469 (Exclusion - Arginine B) (ssRNA)
RNA: GUUACGCAUGGAAGGAGCGCGAAAAUUUAUAGUGAGUGAUGUUCACAAAUAAGAAUAAUAACGCAGGUAGGUCGCCAUGUGUAAC
B11: Eterna 5958897 (Exclusion NG 2) (ssRNA)
RNA: AGCUGUGGCCGAGGAUAUCUAUCCCAAAUAACCGAAAUAUAAUCGGACAUGAGGAUCACCCAUGUAGAGAAGGCGGUCUCAGCA
B12: Eterna 7646225 (Same State - Tryptophan A) (ssRNA)
RNA: AAUAACAUGAGGAUCACCCAUGUAAGUAAACGAGGACCGGUACGGCCGCCACUCGAAUAAAUAAAGUACCGGUAAGAUCCAUAGA
B13: Eterna 10494 (Sensor v3, turn-off variant 2) (ssRNA)
RNA: AGUACUAACACGAAAGUGUUAGUCCAAUAAGCUUGUGAAACAUGAGGAUCACCCAUGUCCUCAUAAGCUCGUCUUAU
B14: Eterna 6071251 (Exclusion 3) (ssRNA)
RNA: GCACUGACAGGAUAUACAUGAGGAUCACCCAUGUGACCCUUACAGUACUCGCGUACUGGUAGAAGGGUCUGUGC
B15: Eterna 7761084 (Exclusion - FMN A) (ssRNA)
RNA: CGAGUGAUGUUCGUUCGUAUAUUUGGGUGACAGGAUAUGCGGAAACGCAGAAGGGUCGCCUUCGGGUUACCCGAAUUGGCGUUUU
B16: Eterna 7730299 (Same State - Arginine B) (ssRNA)
RNA: UGUAUGGACUGAAGGAGCGGGUAAAUAACCUGAGGAUCACCCAGGUAAAAGGCGAAAGCCACCCAGGUAGGUCGCAGUCCAUACU
B17: Eterna 7691982 (Same State - Arginine B) (ssRNA)
RNA: UGACUGGACUGAAGGAGCGAGCGAGACAAAGUCUCGAAAAUUCAGUGAUGUUGAAAUAUAACUCAGGUAGGUCGCAGUCUAGUCU
B18: Eterna 5954774 (Same State NG 2) (ssRNA)
RNA: GUAGCAUACCGAGGAUAUUCAUAUAAUACAUGAGGAUCACCCAUGUUAUAUAGGCGAAAGCCUUGGGAGAAGGCGGAAUGCUAC
B19: Eterna 7692279 (Exclusion - Arginine B) (ssRNA)
RNA: AUUUUUUACAGAAGGAGCGUGUUUUAAUAAUCAUGGUGCUUAGCGAGUGAUGUUCGCUUUACACAGGUAGGUCGCUGUUUAUUUA
B20: Eterna 7687669 (Same State - Tryptophan B) (ssRNA)
RNA: UUUAUUAAGACGGCCGCCACUGAUUCAUAGUGAUGUUAUGAUAUAAUCUUAGUGAUAUUUAUAAACAGGACCGGGUCAAUUAUUA
B21: Eterna 6382764 (Same State NG 3) (ssRNA)
RNA: GGACGUCACAUUAACAUGAGGAUCACCCAUGUGAAAACACAUGAGGAUAUGGAUCCUAAUUGGAUCCAGAAGGCAUGGACGUCC
B22: Eterna 1615 (Same State - Theophylline A) (ssRNA)
RNA: UGCACCAGUGAUGUUGGUCGGCACCGAGAUACCAGCUGAUCUCUUAGCCCUUGGCAGCUCUUUAUUCGCGUUAUCAGUUUCUUCG
B23: Eterna 7702594 (Exclusion - Arginine B) (ssRNA)
RNA: GUUACGCAUGGAAGGAGCGCACUCCGAUUGAUCGACACAGUGAUGUUGUGGUUCGUUCGAAUGCAGGUAGGUCGCCAUGUGUAAC
B24: Eterna 7758370 (Same State - Tryptophan B) (ssRNA)
RNA: UGUCAUUGGUCGGCCGCCACUUCAUAAAGAGUGAUGUUCUUAAAGACGGAUCGAAAGAUCUGUCGAAGGACCGGGACCGAUGACU
B25: Eterna 7740495 (Exclusion - Theophylline A) (ssRNA)
RNA: UCCUGCAAUCGUCCACGAAAGUGGAUCGAUACCAGAGUCGAAAGACUCCCUUGGCAGCGAGUGAUGUUCGAAGCAGGUAAAUAAA
B26: Eterna 7721239 (Exclusion - Theophylline B) (ssRNA)
RNA: GGAAUAACCUGGGAUACCAGUCGGAGGACUAGGGAUCGGAGUGAUGUUCUGGGAUGUUUCGGCCCUUGGCAGCUCUGGUUUUCCG
B27: Eterna 7696143 (Exclusion - Theophylline B) (ssRNA)
RNA: UGAUACCAGACUGAUACCAGCCAGUGAUGUUGGCUAAUCCAAGAAGGAGUCAAAGACUCCGGCCCUUGGCAGCAGUCUGGUAUCU
B28: Eterna 7700638 (Same State - FMN B) (ssRNA)
RNA: ACCUAGUACGUAGGAUAUCGAACAUCAUUUAGUGAGAUCGAGUGAUGUUCGAUCACGUCUUCAGUUCGAGAAGGACGUACUAGGA
B29: Eterna 7716457 (Exclusion - Theophylline B) (ssRNA)
RNA: CGUUUAUAGCAGGAUACCAGUACCCAUUAUGUACGUUUAUAGUAGAGUGAUGUUCUAAAGUACCCUUGGCAGCUUCCCGUGACCC
B30: Eterna 7721560 (Exclusion - FMN A) (ssRNA)
RNA: CGAGUGAUGUUCGUUUUAAAAUUUUUUUGACAGGAUAUGCGGAAACGCAGAAGGGUCACCUUUGAGUUAAAAGAAAUUAAAUUUU
B31: Eterna 6387857 (Small Loop Same State NG 3) (ssRNA)
RNA: AAUCUUUUUAUGGGAUUACAAUAUGAGGAUAUCAUUCAUUUAUACAUGAGGAUCACCCAUGUUACUGAGAAGGCAUAUAUAAUA
B32: Eterna 7727640 (Exclusion - Tryptophan A) (ssRNA)
RNA: GGCCUGGUCGCCUAGUGAUUGUCGGUAGGACGAGGACCGGUACGGCCGCCACUCGGCUUACCCAGUGAUGUUGGGUAUCCGUGGC
B33: Eterna 7693586 (Exclusion - Tryptophan B) (ssRNA)
RNA: GGAUAGGACACGGCCGCCACUACCGAGGAUACUCGAAACAUUUCCUCAGAUGAGUGAUGUUCAUCUAGGACCGGGUGUCCUAUCG
B34: Eterna 7755342 (Exclusion - FMN A) (ssRNA)
RNA: AAGUGUCAUUAGACACACCGAUGUAUAAACUAGGAUAUGCUGAUAAGCAGAAGGAGUGAUGUUCCUUUCAUCAUCGGAAUUAAAU
B35: Eterna 7751925 (Exclusion - Tryptophan B) (ssRNA)
RNA: GGUAGCAUGGCGGCCGCCACUAAGAGAGUGAUGUUCUCUUAGUUUUUUGAUGUGUUAUCAAUUCUUAGGACCGGGCCAUGCUACC
B36: Eterna 6454073 (Inverted Small Loop Exclusion NG 3) (ssRNA)
RNA: CUGUGACGGUGCGCAAGUGGACGUAGAAGGGUCACAUGAGGAUCACCCAUGUGGGCCUGCUAGUGACAGGAUAUACGUUCGUGC
B37: Eterna 6430181 (Small Loop Exclusion NG 3) (ssRNA)
RNA: UAUAGCCCUAGUUCGAGUGUCUAGGAGGAUAUACAGAGGCAGCCAAAGACAUGAGGAUCACCCAUGUAGAAGGCCUAGACGGUA
B38: Eterna 6093766 (Exclusion NG 2) (ssRNA)
RNA: UGUCGGAGCAGAGGAUAUAUACAUGAGGAUCACCCAUGUAAAUGAAUGAGCUGGAAACAGCAAGUAUAGAAGGCUGCUCCGACA
B39: Eterna 6084833 (Exclusion 5) (ssRNA)
RNA: UCAUGCUAAGGAUAUGACGUCGGCUACAUGAGGAUCACCCAUGUGGGUUCGUUAUGGCCAUUAGAAGGUAGCGAUU
B40: Eterna 7710066 (Exclusion - Tryptophan A) (ssRNA)
RNA: AGCUGGGAUCCUCAGCGUCAAAGACGCAGUCGAGGACCGGUACGGCCGCCACUCGACACGAGGAUCACCCGUGUCAUUCCCAGCA
B41: Eterna 7685149 (Same State - Theophylline B) (ssRNA)
RNA: AAGUGUUCUAGUGAUACCAGACAAUUUUAUUUUUUCUUUUUUGCUAAGUGAUGUUUAGCAGUCCCUUGGCAGCACUAUUUCACUA

molecular target: MS2 coat protein, dlFG mutant (Escherichia phage MS2, UniProt P03612, del68-81insG); assay: 4 mM Mg2+; no ligand; RNA-MaP array; 100 mM Tris-HCl pH 7.5, 80 mM KCl, 4 mM MgCl2, 0.1 mg/mL BSA, 1 mM DTT, 0.01 mg/mL yeast tRNA, 0.01% Tween-20; protein 1.5 nM to 3 uM; 37 C (Table S3); settings: chain copies: 2; label: tethered by stalled RNA polymerase

| Binder | Kd [nM] |
| --- | --- |
| B1 | > 3000 |
| B2 | 12.6 |
| B3 | 5.68 |
| B4 | 33.3 |
| B5 | 13.2 |
| B6 | 15.2 |
| B7 | > 3000 |
| B8 | > 3000 |
| B9 | > 3000 |
| B10 | > 3000 |
| B11 | 28.4 |
| B12 | 21.3 |
| B13 | 15.2 |
| B14 | 35.4 |
| B15 | > 3000 |
| B16 | 10.9 |
| B17 | > 3000 |
| B18 | 16.3 |
| B19 | > 3000 |
| B20 | > 3000 |
| B21 | 27.8 |

| Binder | Kd [nM] |
| --- | --- |
| B22 | > 3000 |
| B23 | > 3000 |
| B24 | > 3000 |
| B25 | > 3000 |
| B26 | > 3000 |
| B27 | > 3000 |
| B28 | > 3000 |
| B29 | > 3000 |
| B30 | > 3000 |
| B31 | 28.4 |
| B32 | > 3000 |
| B33 | > 3000 |
| B34 | > 3000 |
| B35 | > 3000 |
| B36 | 19.3 |
| B37 | 13.6 |
| B38 | 14.9 |
| B39 | 19.6 |
| B40 | 379 |
| B41 | > 3000 |
